Measured values from publication PMC10864337.

Legend:
[1] = molecular target: Drp1 Y493A (isoform 1) (human) (UniProt O00429)
[2] = molecular target: Drp1 Y493A (isoform 1) (human) (UniProt O00429); assay: SEC-MALS; 5 µM Drp1 injected onto a Superose 6 10/300GL column

GTPase activity (malachite green) with cardiolipin-containing nanotubes; not stimulated [1]: 1.2 min⁻¹
stoichiometry N [2]: 2
Substance: Drp1 Y493A (isoform 1) (from UniProt O00429-1 1-736) (natural protein)
